In the Human Domainome abundance scans (Beltran et al. 2025):
± gives the uncertainty stated by the source.

B1: Tumor protein 63, residues 545 to 610; numbered along this chain, Q9H3D4 (parent)
chain: TDCSIVSFLARLGCSSCLDYFTTQGLTTIYQIEHYSMDDLASLKIPEQFRHAIWKGILDHRQLHEF

Variants of: B1
Test: abundance fitness (aPCA) (normalised: wild type 0, dead -1); higher = more abundant; growth selection in yeast, the domain comes from the species named
Conditions: Homo sapiens

TDCSIVSFLARLGCSSCLDYFTTQGLTTIYQIEHYSMDDLASLKIPEQFRCAIWKGILDHRQLHEF [H51C] and TDCSIVSFLARLGCSSCLDYFTTQGLTTIYQIEHYSMDDLASLKIPEQFRIAIWKGILDHRQLHEF [H51I] are within error of each other in abundance fitness: -0.034 ± 0.029 for the first, -0.079 ± 0.041 for the second.

TDCSIVSFLARLGCSSCLDYFTTQGLTTIYQIEHYSMDDLASLKIPEQFRKAIWKGILDHRQLHEF [H51K] and TDCSIVSFLARLGCSSCLDYFTTQGLTTIYQIEHYSMDDLASLKIPEQFRSAIWKGILDHRQLHEF [H51S] are within error of each other in abundance fitness: -0.012 ± 0.031 for the first, 0.013 ± 0.02 for the second.

TDCSIVSFLARLGCSSCLDYFTTQGLTTIYQIEHYSMDDLASLKIPEQFRMAIWKGILDHRQLHEF [H51M] and TDCSIVSFLARLGCSSCLDYFTTQGLTTIYQIEHYSMDDLASLKIPEQFRVAIWKGILDHRQLHEF [H51V] are within error of each other in abundance fitness: -0.009 ± 0.027 for the first, -0.034 ± 0.022 for the second.

TDCSIVSFLARLGCSSCLDYFTTQGLTTIYQIEHYSMDDLASLKIPEQFRWAIWKGILDHRQLHEF [H51W] and TDCSIVSFLARLGCSSCLDYFTTQGLTTIYQIEHYSMDDLASLKIPEQFRLAIWKGILDHRQLHEF [H51L] are within error of each other in abundance fitness: -0.058 ± 0.025 for the first, -0.029 ± 0.024 for the second.

TDCSIVSFLARLGCSSCLDYFTTQGLTTIYQIEHYSMDDLASLKIPEQFRDAIWKGILDHRQLHEF [H51D] and TDCSIVSFLARLGCSSCLDYFTTQGLTTIYQIEHYSMDDLASLKIPEQFREAIWKGILDHRQLHEF [H51E] are within error of each other in abundance fitness: -0.028 ± 0.036 for the first, 0.005 ± 0.038 for the second.

TDCSIVSFLARLGCSSCLDYFTTQGLTTIYQIEHYSMDDLASLKIPEQFRAAIWKGILDHRQLHEF [H51A] and TDCSIVSFLARLGCSSCLDYFTTQGLTTIYQIEHYSMDDLASLKIPEQFRQAIWKGILDHRQLHEF [H51Q] are within error of each other in abundance fitness: -0.022 ± 0.025 for the first, 0.005 ± 0.035 for the second.

TDCSIVSFLARLGCSSCLDYFTTQGLTTIYQIEHYSMDDLASLKIPEQFRGAIWKGILDHRQLHEF [H51G] and TDCSIVSFLARLGCSSCLDYFTTQGLTTIYQIEHYSMDDLASLKIPEQFRFAIWKGILDHRQLHEF [H51F] are within error of each other in abundance fitness: -0.023 ± 0.02 for the first, -0.052 ± 0.044 for the second.

TDCSIVSFLARLGCSSCLDYFTTQGLTTIYQIEHYSMDDLASLKIPEQFRYAIWKGILDHRQLHEF [H51Y] and TDCSIVSFLARLGCSSCLDYFTTQGLTTIYQIEHYSMDDLASLKIPEQFRPAIWKGILDHRQLHEF [H51P] are within error of each other in abundance fitness: -0.075 ± 0.045 for the first, -0.031 ± 0.033 for the second.

TDCSIVSFLARLGCSSCLDYFTTQGLTTIYQIEHYSMDDLASLKIPEQFRTAIWKGILDHRQLHEF [H51T] and TDCSIVSFLARLGCSSCLDYFTTQGLTTIYQIEHYSMDDLASLKIPEQFRRAIWKGILDHRQLHEF [H51R] are within error of each other in abundance fitness: 0.003 ± 0.026 for the first, -0.031 ± 0.018 for the second.

Going from TDCSIVSFLARLGCSSCLDYFTTQGLTTIYQIEHYSMDDLASLKIPEQFYHAIWKGILDHRQLHEF [R50Y] to TDCSIVSFLARLGCSSCLDYFTTQGLTTIYQIEHYSMDDLASLKIPEQFSHAIWKGILDHRQLHEF [R50S], the abundance fitness rises from -0.174 ± 0.036 to -0.102 ± 0.025.

Compared with TDCSIVSFLARLGCSSCLDYFTTQGLTTIYQIEHYSMDDLASLKIPEQFMHAIWKGILDHRQLHEF [R50M], TDCSIVSFLARLGCSSCLDYFTTQGLTTIYQIEHYSMDDLASLKIPEQFPHAIWKGILDHRQLHEF [R50P] is lower in abundance fitness: -0.002 ± 0.029 for the first, -0.848 ± 0.072 for the second.

TDCSIVSFLARLGCSSCLDYFTTQGLTTIYQIEHYSMDDLASLKIPEQFQHAIWKGILDHRQLHEF [R50Q] and TDCSIVSFLARLGCSSCLDYFTTQGLTTIYQIEHYSMDDLASLKIPEQFWHAIWKGILDHRQLHEF [R50W] are within error of each other in abundance fitness: -0.067 ± 0.035 for the first, -0.128 ± 0.027 for the second.

TDCSIVSFLARLGCSSCLDYFTTQGLTTIYQIEHYSMDDLASLKIPEQFTHAIWKGILDHRQLHEF [R50T] and TDCSIVSFLARLGCSSCLDYFTTQGLTTIYQIEHYSMDDLASLKIPEQFRHVIWKGILDHRQLHEF [A52V] are within error of each other in abundance fitness: -0.056 ± 0.028 for the first, -0.013 ± 0.023 for the second.

TDCSIVSFLARLGCSSCLDYFTTQGLTTIYQIEHYSMDDLASLKIPEQFRHCIWKGILDHRQLHEF [A52C] and TDCSIVSFLARLGCSSCLDYFTTQGLTTIYQIEHYSMDDLASLKIPEQFRHWIWKGILDHRQLHEF [A52W] are within error of each other in abundance fitness: -0.015 ± 0.038 for the first, -0.076 ± 0.055 for the second.

TDCSIVSFLARLGCSSCLDYFTTQGLTTIYQIEHYSMDDLASLKIPEQFRHIIWKGILDHRQLHEF [A52I] and TDCSIVSFLARLGCSSCLDYFTTQGLTTIYQIEHYSMDDLASLKIPEQFRHSIWKGILDHRQLHEF [A52S] are within error of each other in abundance fitness: -0.062 ± 0.052 for the first, -0.016 ± 0.027 for the second.

Going from TDCSIVSFLARLGCSSCLDYFTTQGLTTIYQIEHYSMDDLASLKIPEQFRHGIWKGILDHRQLHEF [A52G] to TDCSIVSFLARLGCSSCLDYFTTQGLTTIYQIEHYSMDDLASLKIPEQFRHEIWKGILDHRQLHEF [A52E], the abundance fitness rises from -0.086 ± 0.021 to -0.024 ± 0.029.

TDCSIVSFLARLGCSSCLDYFTTQGLTTIYQIEHYSMDDLASLKIPEQFRHNIWKGILDHRQLHEF [A52N] and TDCSIVSFLARLGCSSCLDYFTTQGLTTIYQIEHYSMDDLASLKIPEQFRHHIWKGILDHRQLHEF [A52H] are within error of each other in abundance fitness: -0.092 ± 0.036 for the first, -0.068 ± 0.046 for the second.

TDCSIVSFLARLGCSSCLDYFTTQGLTTIYQIEHYSMDDLASLKIPEQFRHMIWKGILDHRQLHEF [A52M] and TDCSIVSFLARLGCSSCLDYFTTQGLTTIYQIEHYSMDDLASLKIPEQFRHKIWKGILDHRQLHEF [A52K] are within error of each other in abundance fitness: -0.101 ± 0.051 for the first, -0.023 ± 0.038 for the second.

TDCSIVSFLARLGCSSCLDYFTTQGLTTIYQIEHYSMDDLASLKIPEQFRHLIWKGILDHRQLHEF [A52L] and TDCSIVSFLARLGCSSCLDYFTTQGLTTIYQIEHYSMDDLASLKIPEQFRHPIWKGILDHRQLHEF [A52P] are within error of each other in abundance fitness: -0.024 ± 0.023 for the first, -0.043 ± 0.031 for the second.

TDCSIVSFLARLGCSSCLDYFTTQGLTTIYQIEHYSMDDLASLKIPEQFRHDIWKGILDHRQLHEF [A52D] and TDCSIVSFLARLGCSSCLDYFTTQGLTTIYQIEHYSMDDLASLKIPEQFRHTIWKGILDHRQLHEF [A52T] are within error of each other in abundance fitness: -0.064 ± 0.03 for the first, -0.037 ± 0.033 for the second.

In the case of TDCSIVSFLARLGCSSCLDYFTTQGLTTIYQIEHYSMDDLASLKIPEQFRHFIWKGILDHRQLHEF [A52F], the abundance fitness is reported as -0.049 ± 0.047.
